Assay results published in IntAct's records for PubMed 20042240.

B1: Complement factor H (Homo sapiens), P08603 (parent)
chain: MRLLAKIICLMLWAICVAEDCNELPPRRNTEILTGSWSDQTYPEGTQAIYKCRPGYRSLGNVIMVCRKGEWVALNPLRKCQKRPCGHPGDTPFGTFTLTGGNVFEYGVKAVYTCNEGYQLLGEINYRECDTDGWTNDIPICEVVKCLPVTAPENGKIVSSAMEPDREYHFGQAVRFVCNSGYKIEGDEEMHCSDDGFWSKEKPKCVEISCKSPDVINGSPISQKIIYKENERFQYKCNMGYEYSERGDAVCTESGWRPLPSCEEKSCDNPYIPNGDYSPLRIKHRTGDEITYQCRNGFYPATRGNTAKCTSTGWIPAPRCTLKPCDYPDIKHGGLYHENMRRPYFPVAVGKYYSYYCDEHFETPSGSYWDHIHCTQDGWSPAVPCLRKCYFPYLENGYNQNYGRKFVQGKSIDVACHPGYALPKAQTTVTCMENGWSPTPRCIRVKTCSKSSIDIENGFISESQYTYALKEKAKYQCKLGYVTADGETSGSITCGKDGWSAQPTCIKSCDIPVFMNARTKNDFTWFKLNDTLDYECHDGYESNTGSTTGSIVCGYNGWSDLPICYERECELPKIDVHLVPDRKKDQYKVGEVLKFSCKPGFTIVGPNSVQCYHFGLSPDLPICKEQVQSCGPPPELLNGNVKEKTKEEYGHSEVVEYYCNPRFLMKGPNKIQCVDGEWTTLPVCIVEESTCGDIPELEHGWAQLSSPPYYYGDSVEFNCSESFTMIGHRSITCIHGVWTQLPQCVAIDKLKKCKSSNLIILEEHLKNKKEFDHNSNIRYRCRGKEGWIHTVCINGRWDPEVNCSMAQIQLCPPPPQIPNSHNMTTTLNYRDGEKVSVLCQENYLIQEGEEITCKDGRWQSIPLCVEKIPCSQPPQIEHGTINSSRSSQESYAHGTKLSYTCEGGFRISEENETTCYMGKWSSPPQCEGLPCKSPPEISHGVVAHMSDSYQYGEEVTYKCFEGFGIDGPAIAKCLGEKWSHPPSCIKTDCLSLPSFENAIPMGEKKDVYKAGEQVTYTCATYYKMDGASNVTCINSRWTGRPTCRDTSCVNPPTVQNAYIVSRQMSKYPSGERVRYQCRSPYEMFGDEEVMCLNGNWTEPPQCKDSTGKCGPPPPIDNGDITSFPLSVYAPASSVEYQCQNLYQLEGNKRITCRNGQWSEPPKCLHPCVISREIMENYNIALRWTAKQKLYSRTGESVEFVCKRGYRLSSRSHTLRTTCWDGKLEYPTCAKR
partner: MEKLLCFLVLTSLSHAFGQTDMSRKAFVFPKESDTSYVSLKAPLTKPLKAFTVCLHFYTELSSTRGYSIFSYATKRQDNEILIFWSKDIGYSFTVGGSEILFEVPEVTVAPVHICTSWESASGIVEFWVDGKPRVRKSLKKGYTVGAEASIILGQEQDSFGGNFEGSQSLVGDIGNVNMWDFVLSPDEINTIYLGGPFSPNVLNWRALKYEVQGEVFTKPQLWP
B2: Complement factor H-related protein 4 (Homo sapiens), Q92496-1 (parent)
chain: MLLLINVILTLWVSCANGQEVKPCDFPEIQHGGLYYKSLRRLYFPAAAGQSYSYYCDQNFVTPSGSYWDYIHCTQDGWSPTVPCLRTCSKSDVEIENGFISESSSIYILNEETQYNCKPGYATAEGNSSGSITCLQNGWSTQPICIKFCDMPVFENSRAKSNGMWFKLHDTLDYECYDGYESSYGNTTDSIVCGEDGWSHLPTCYNSSENCGPPPPISNGDTTSFPQKVYLPWSRVEYQCQSYYELQGSKYVTCSNGDWSEPPRCISMKPCEFPEIQHGHLYYENTRRPYFPVATGQSYSYYCDQNFVTPSGSYWDYIHCTQDGWLPTVPCLRTCSKSDIEIENGFISESSSIYILNKEIQYKCKPGYATADGNSSGSITCLQNGWSAQPICIKFCDMPVFENSRAKSNGMRFKLHDTLDYECYDGYEISYGNTTGSIVCGEDGWSHFPTCYNSSEKCGPPPPISNGDTTSFLLKVYVPQSRVEYQCQSYYELQGSNYVTCSNGEWSEPPRCIHPCIITEENMNKNNIQLKGKSDIKYYAKTGDTIEFMCKLGYNANTSVLSFQAVCREGIVEYPRCE
partner: B1 partner

Variants of: B1
Conditions: with crp_human CRP

Variant	effect of a mutation on the interaction
E338K	disrupting interaction strength

Variants of: B2
Conditions: with crp_human CRP

Variant	effect of a mutation on the interaction
K37A	decreasing interaction strength
L39A	decreasing interaction strength
Y35A;Y36A	decreasing interaction strength
R40A;R41A	decreasing interaction strength
S38A	with no effect
K37A;S38A	disrupting interaction strength

Variants of: B2
Conditions: with crp_human CRP
Remark: another data set of the same source

Variant	effect of a mutation on the interaction
K37A	disrupting interaction strength
L39A	with no effect
Y35A;Y36A	disrupting interaction strength
R40A;R41A	disrupting interaction strength
S38A	decreasing interaction strength

Variants of: B2
Conditions: with crp_human CRP
Remark: another data set of the same source

Variant	effect of a mutation on the interaction
K37E	decreasing interaction strength

Variants of: B2
Conditions: with crp_human CRP
Remark: another data set of the same source

Variant	effect of a mutation on the interaction
E284K	increasing interaction strength
